From patent publication US20240343803A1 (SHANDONG SIMCERE BIOPHARMACEUTICAL, published 2024)
Positions count from the first letter of the chain named.

T1: Full-length human TIGIT on CHO-K1 cells (CHO-K1 human TIGIT) (human, UniProt Q495A1 22-244)
T1 construct: NCBI XP_024309156.1; the entry includes the signal peptide (limits not recoverable); The strain (high, medium, low) is named under assay; also called high expression strain 1D2; medium expression strain 2D10
T1 sequence: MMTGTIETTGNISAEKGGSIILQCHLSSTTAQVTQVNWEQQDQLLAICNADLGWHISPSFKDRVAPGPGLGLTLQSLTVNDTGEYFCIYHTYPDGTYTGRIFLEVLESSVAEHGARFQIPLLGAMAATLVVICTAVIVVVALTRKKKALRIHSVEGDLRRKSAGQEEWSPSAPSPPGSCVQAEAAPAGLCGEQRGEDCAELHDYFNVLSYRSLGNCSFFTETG

T2: Fusion protein of extracellular domain of human TIGIT and His-tag (human TIGIT ECD-his) (human)
T2 chain: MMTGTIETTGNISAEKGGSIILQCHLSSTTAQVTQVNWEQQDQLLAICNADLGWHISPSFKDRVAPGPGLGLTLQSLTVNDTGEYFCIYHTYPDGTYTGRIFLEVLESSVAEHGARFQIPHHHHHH

T3: human PVRIG-his (AcroBiosystems, Cat NO. PVG-H52H4) (human, UniProt Q6DKI7 41-171, limits assumed)
T3 construct: treated as the same protein; also called human PVRIG-His protein; Human PVRIG-His, Acro C227P1-9ARF1-T4
T3 sequence (looked up): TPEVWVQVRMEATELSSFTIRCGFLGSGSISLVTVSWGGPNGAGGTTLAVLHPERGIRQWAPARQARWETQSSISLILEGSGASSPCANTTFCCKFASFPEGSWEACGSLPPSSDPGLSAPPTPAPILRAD

T4: Fusion protein of extracellular domain of human TIGIT and mouse IgG2a Fc fragment (human TIGIT ECD-mFc) (human)
T4 construct: The entry includes the signal peptide (limits not recoverable) and the mouse IgG2a Fc
T4 chain: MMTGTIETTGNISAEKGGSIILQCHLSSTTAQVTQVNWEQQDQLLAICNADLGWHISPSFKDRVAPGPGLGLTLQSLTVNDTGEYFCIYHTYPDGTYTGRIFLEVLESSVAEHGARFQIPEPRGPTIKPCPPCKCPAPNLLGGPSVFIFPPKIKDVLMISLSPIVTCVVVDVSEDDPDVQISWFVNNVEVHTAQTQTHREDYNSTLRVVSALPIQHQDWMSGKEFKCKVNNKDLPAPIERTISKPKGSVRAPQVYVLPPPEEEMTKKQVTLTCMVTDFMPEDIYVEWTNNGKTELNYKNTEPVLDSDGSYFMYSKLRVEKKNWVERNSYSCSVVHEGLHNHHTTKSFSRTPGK

T5: human PVRIG-mFc protein (Acro, PVG-H5253) (human, UniProt Q6DKI7 41-171, limits assumed)
T5 construct: bought reagent; also called PVRIG-ECD-mFc
T5 sequence (looked up): T3 sequence (looked up)

B1: TIGIT-006-H3L1 (antibody, V domains shown)
VH: EVQLQESGPGLVKPSETLSLTCAVSGYSMTSDYWNWIRQPPGKKLEWIGYISYSGRTYYNPSLKSRVTISRDTSKNQFSLKLSSVTAADTAVYYCARGDYSNYGGAMYDWGQGTTVTVSS
VL: DIVMTQTPLSLSVTPGQPASISCRASQGVSTTIAWYLQKPGQSPQLLIYSASYRYTGVPDRFSGSGSGTDFTLKISRVEAEDVGVYYCQQYYSSPFTFGGGTKVEIK
notes: Humanized anti-TIGIT antibody
B2: TIGIT-006-H2L2 (antibody, V domains shown)
VH: B1 VH with K44G
VL: B1 VL with L37Q, Q45K
notes: Humanized anti-TIGIT antibody
B3: TIGIT-006-H4L2 (antibody, V domains shown)
VH: B1 VH with I48M, V67I
VL: B1 VL with L37Q, Q45K
notes: Humanized anti-TIGIT antibody
B4: TIGIT-006-H4L1 (antibody, V domains shown)
VH: B1 VH with I48M, V67I
VL: B1 VL
notes: Humanized anti-TIGIT antibody
B5: PVRIG-A35 (VHH)
VHH: EVQVVESGGGLVQSGGSLRLSCAASGRTRSMYVMGWFRQAPGKEREFVGRIKWSGDTTYTSYADFVKGRFTLYGNQARNTVYLQMNSLKPEDTAVYYCNGRSRFNVINAWGTGTLVTVAS
notes: tested as VHH-hinge-CH2-CH3 (human IgG1-Fc); not shown: human IgG1 hinge-CH2-CH3
B6: PVRIG-A104 (VHH)
VHH: EVQVVESGGGLVQAGGSLRLSCAASGRTRSMYVMGWFRQAPGKEREFVGRIKWSGDTTYTSYADFVKGRFTLYGNQARNTVYLQMNSLKPEDTAVYYCYRRSWTNTKLYWGKGIQVTVSS
notes: as for B5
B7: PVRIG-A43 (VHH)
VHH: QVQLVESGGGLVQSGGSLRLSCAASGRTRSMYVMGWFRQAPGKEREFVGRIKWSGDTTYTSYADFVKGRFTLYGNQARNTVYLQMNSLKVEDTAVYYCAGRVVPLPSRQRDRYDYWGQGTQVTVSS
notes: as for B5

target: T1, Full-length human TIGIT on CHO-K1 cells …; assay: cell binding, CHO-K1 human TIGIT high expression strain
Description: The collected cells were washed once with PBS (Hyclone, CAT #SH30256), resuspended to 2×10⁵/50 μL with 1% BSA-PBS. The antibodies were diluted to 80 nM with 1% BSA-PBS (diluted by 3-fold serial dilution for 12 concentration points). The 50 μL cells were then mixed with 50 μL diluted antibodies, and then incubated at 4° C. for 60 minutes. […] After washing twice with PBS, the cell samples were resuspended with 1% BSA-PBS, 100 μL/well and then analyzed by flow cytometry (BD, Canto II). […] [0298] (c) The effect of anti-TIGIT chimeric antibodies blocking the interaction between Bio-CD155-His and CHO-K1 human TIGIT high expression cell strains detected by FACS
(§1) The affinity of the above humanized antibodies with human TIGIT ECD-His is detected by BIAcore, and with reference to the methods of Example 4 (a), (b), and (d), the binding activity of the above humanized antibodies to human TIGIT ECD-mFc, CHO-K1 human TIGIT, CHO-K1 cynomolgus monkey TIGIT and cynomolgus monkey TIGIT ECD-mFc, and the effect of the humanized antibodies blocking the binding between human TIGIT ECD-mFc and CHO-K1 CD155 are detected, the results are shown in Table 18.

EC50 [nM]	Binder
0.0468	B1
0.0444	B2
0.0251	B3
0.0349	B4

Target: T2, Fusion protein of extracellular domain …
Assay: BIAcore

Kd [nM]	koff [s⁻¹]	kon [M⁻¹ s⁻¹]	Binder
0.705	0.000241	342000	B1
0.893	0.000324	363000	B2
0.658	0.000221	337000	B3
0.657	0.000258	393000	B4

target: T6, Fusion protein of extracellular domain of cynomolgus monkey TIGIT and mouse IgG2a Fc fragment (cynomolgus … (cynomolgus monkey)); assay: ELISA, cynomolgus monkey TIGIT ECD-mFc
T6 construct: The entry includes the signal peptide (limits not recoverable) and the mouse IgG2a Fc
T6 sequence (chain, as listed by the source limits assumed): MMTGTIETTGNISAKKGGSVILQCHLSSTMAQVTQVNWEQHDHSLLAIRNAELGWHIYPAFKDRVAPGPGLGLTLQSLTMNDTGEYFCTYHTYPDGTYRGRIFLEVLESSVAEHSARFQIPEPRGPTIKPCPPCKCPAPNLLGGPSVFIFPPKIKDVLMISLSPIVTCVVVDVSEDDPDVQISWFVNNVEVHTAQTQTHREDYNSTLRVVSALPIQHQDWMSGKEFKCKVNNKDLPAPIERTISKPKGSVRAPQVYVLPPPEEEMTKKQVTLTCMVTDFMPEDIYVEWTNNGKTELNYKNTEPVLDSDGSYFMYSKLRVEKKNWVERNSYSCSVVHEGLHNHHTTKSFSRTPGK
Description: (§2) After discarding the coating solution, the plate was added with 5% skim milk powder (Sangon Biotech, CAT #A600669-0250)-PBS, 250 μL/well, and incubated at 37° C. for 2-4 hours. […] The enzyme-labeled plate was then washed with 0.05% Tween 20-PBS for 3 times on the Microplate Washer, added with tested antibodies diluted to 13 nM with 1% BSA (diluted by 3-fold serial dilution for 12 concentration points), 50 μL/well, and incubated at 37° C. for 1.5-2 hours. The plate was washed with 0.05% Tween 20-PBS for 3 times on the Microplate Washer, then added with HRP enzyme-labeled antibodies (Merck, CAT #AP113P) diluted with 1% BSA (Sangon Biotech, CAT #A500023-0100)-PBS at a dilution ratio of 1:5000, 50 μL/well, and incubated at 37° C. for 1 hour. After washing 3 times with 0.05% Tween 20-PBS on the Microplate Washer, the plate was added with TMB chromogenic solution (KPL, CAT #52-00-03), 50 μL/well, and incubated at room temperature for 7-10 minutes. 1M HCL, 50 μL/well, was then added into the plate to terminate the reaction, and the OD450 nm was read by a microplate reader (Biotek, Powerwave HT). […] (b) The binding activity of anti-TIGIT chimeric antibodies to CHO-K1 human TIGIT (cells with high, medium and low expression levels) and CHO-KI cynomolgus monkey TIGIT detected by FACS.
as §1

EC50 [nM]	Binder
2.81	B1
3.38	B2
0.997	B3
1.53	B4

target: T3, human PVRIG-his (AcroBiosystems, Cat …); assay: competition ELISA on coated human PVRIG-his; blocked ligand human PVRL2-mFc
Description: The ELISA plate was pre-coated with 100 μL/well of 0.5 μg/mL human PVRIG-his protein (AcroBiosystems, Cat NO. PVG-H52H4). The tested anti-PVRIG antibodies were diluted from the highest concentration of 16 nM (two-fold concentration). The diluted antibodies were mixed with 18 ng/ml human PVRL2-mFc (AcroBiosystems, Cat NO. CD2-H5257) in equal volume, added into the plate (100 μL/well), and incubated with shaking at room temperature for 2.0 hours. […] A HRP substrate, TMB (Thermo, Cat NO. 34029) was added into wells after washing the plate again for color development. After adding a termination solution to terminate the reaction, the absorbance value was read by a microplate reader (MD i3×). An inhibiting curve was drawn with concentration of antibodies as the abscissa and the corresponding OD value as the ordinate. The IC50 value was calculated by using a Four Parameter Logistic Fit (GraphPadPrism9). The smaller the IC50 value, the stronger the ability of the antibodies inhibits the binding between PVRIG and PVRL2. The positive and negative controls are the same as in Example 8.

IC50 (read off the curve) [nM]	Binder
~1	B5
~1	B6
~1	B7

target: T7, Fusion protein of extracellular domain of human TIGIT and human IgG1 Fc fragment (human TIGIT ECD-hFc) (human); assay: blocking of TIGIT ECD-hFc binding to CHO-K1 CD155 cells
T7 construct: The entry includes the signal peptide (limits not recoverable) and the human IgG1 Fc
T7 sequence (chain, as listed by the source limits assumed): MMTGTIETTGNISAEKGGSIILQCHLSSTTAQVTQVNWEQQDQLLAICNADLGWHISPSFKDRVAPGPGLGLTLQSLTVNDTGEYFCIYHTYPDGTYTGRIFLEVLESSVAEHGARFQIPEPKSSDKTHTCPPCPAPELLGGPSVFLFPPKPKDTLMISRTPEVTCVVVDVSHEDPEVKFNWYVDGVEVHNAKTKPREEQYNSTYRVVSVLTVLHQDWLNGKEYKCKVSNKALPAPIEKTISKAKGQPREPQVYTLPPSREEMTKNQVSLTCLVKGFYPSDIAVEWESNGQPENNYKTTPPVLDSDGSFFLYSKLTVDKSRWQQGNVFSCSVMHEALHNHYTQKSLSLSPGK
How it was run: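 The inhibition curves from which IC50 was calculated were generated by cell-based ELISA. Fixed CHO-K1 CD155 cells, blocked with 5% skim milk-PBS, were incubated at 37° C for 1.5-2 h with antibodies that had been premixed for 0.5 h with human TIGIT ECD-hFc at a working concentration of 30 ng/mL. Detection of bound TIGIT used HRP secondary antibody at 1:5000 for 1 h at 37° C, followed by TMB and reading as OD450 nm.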

IC50 [nM]	Binder
0.637	B1
0.904	B2
0.671	B3
0.704	B4

Target: T4, Fusion protein of extracellular domain …
Assay: ELISA, human TIGIT ECD-mFc
Description: as §2, §1

EC50 [nM]	Binder
0.0096	B1
0.0117	B2
0.0113	B3
0.0086	B4

Target: T2, Fusion protein of extracellular domain …
Assay: BIAcore; KD ratio to TIGIT-CHI-006

Fold change vs chimeric antibodies (KD) [fold]	Binder
9.11	B1
11.5	B2
8.5	B3
8.49	B4

target: T5, human PVRIG-mFc protein (Acro, …); assay: competition FACS; blocked: human PVRIG-mFc binding to CHO-K1-CD112 cells
Description: After incubation, the cells were added with staining buffer (2% FBS+PBS) to stop staining, centrifuged at 350×g to remove the supernatant, washed twice and resuspended with staining buffer to a density of 1×10⁶ cells/mL. The cells were plated into a 96-well plate (50 μL of cell suspension per well) for further use. A working solution of human PVRIG-mFc protein (Acro, PVG-H5253) prepared with staining buffer, 1 μg/mL (four-fold concentration), was added into a 96-well plate (50 μL PVRIG-mFc working solution per well). […] The diluted antibodies were added to the well containing 50 μL of PVRIG-mFc. The plate was placed on a microplate shaker at 400 rpm for 1 minute to fully mix the antibodies and PVRIG-mFc proteins, and then incubated at 4° C. for 30 minutes. After the incubation, the cell suspension prepared above (100 μL) was added into the wells, gently mixed with the pipette tip and incubated at 4° C. for 30 minutes. After the incubation, the cells were washed twice with staining buffer (200 μL per well) and centrifuged at 350×g for 5 minutes to discard the supernatant. The PE goat anti-mouse IgG Fc antibody (Biolegend, 405337) was diluted 250 times with staining buffer, added into the washed wells (100 μL per well), mixed well, and stained at 4° C. for 30 minutes. After staining, the cells were washed twice with staining buffer, finally resuspended with 200 μL staining buffer and analyzed by flow cytometry (BD, Canto II). The weaker the fluorescence signal, the stronger the ability of the antibodies blocks the binding of CHO-K1 human CD112 cells to the PVRIG-mFc protein. An antibody binding curve was drawn with concentration of antibodies as the abscissa and the corresponding Mean Fluorescence Intensity (MFI) as the ordinate. The IC50 value of the antibodies and the AUC value of the binding curve were calculated by using a Four Parameter Logistic Fit (GraphPadPrism9). The smaller the IC50 value and AUC value, the stronger the ability of the antibodies competes with CHO-K1-CD112 cells to bind to human PVRIG-mFc protein.

IC50 (read off the curve) [nM]	Binder
~1	B5
~1	B6
~1	B7
